Assay results from PMC12723162, “Alphaherpesvirus pUL21 homologs use non-canonical sequences to compete with cellular adaptors for protein phosphatase 1 binding” (The Journal of Biological Chemistry, 2025).
Positions count from the first letter of the chain named. Names and notes keep the numbering of the source. “Also recorded” adds a separate entry of the source. Like-named read-outs stand apart in the source and are kept apart here.

What was measured:
Assay type in all cases: binding
[1] = target: T1, PP1γ catalytic domain (7–300), C-terminally His6-tagged (Mus musculus, UniProt P63087); assay: Isothermal titration calorimetry (ITC); set-up: key to KD / ∆H / ∆G / -T∆S / N (sites): –: no binding detected
T1 construct: mouse PP1γ catalytic domain (residues 7–300)-H6; made in house; host or cells: E. coli T7 Express lysY/Iq
Excerpt: (§1) Bacterial expression plasmids encoding the mouse PP1γ catalytic domain (residues 7–300)-H6 and pUL21-H6, and mammalian expression vectors encoding pUL21(FV242AA)-GFP, pORF38-GFP and pORF38(FV255AA)-GFP, were described previously ([23]). We note that the mouse and human PP1γ catalytic domains share 100% amino acid identity. pORF38-NLT-H6 was generated by sub-cloning residues 1 to 263 of ORF38 into the vector pOPTnH ([52]). pUL21-RVxF-H6 was generated by inserting the mutations A237V and V239F into pUL21-H6 by QuikChange site-directed mutagenesis. Human PP1α was cloned from HeLa cell cDNA into a vector derived from pF5K (Promega) with an N-terminal Myc epitope tag via restriction-based cloning, and point mutations were introduced into Myc-PP1α by QuikChange mutagenesis. A plasmid encoding pUL21-GFP was generated by sub-cloning a codon-optimized synthetic UL21 gene (GeneArt) into pEGFP-N1 (Clontech), yielding an identical pUL21-GFP amino acid sequence as used in ([23]). pUL21-ΔL, -ΔR and -ΔLR were generated from this vector via inverse PCR, and point mutations were introduced via QuikChange mutagenesis.
Proteins were expressed using E. coli T7 Express lysY/I^q cells (New England Biolabs) grown in 2 × TY medium at 37 °C to OD600 0.8 to 1.2 before cooling to 22 °C and induction of protein expression using 0.4 mM IPTG. Cells were harvested at 16 to 20 h post-induction and pellets stored at −70 °C until required. Cells were resuspended in chilled lysis buffer (20 mM Tris pH 7.5, 20 mM imidazole, 500 mM NaCl, 1.4 mM β-mercaptoethanol 0.5 mM MgCl2 and 0.05% TWEEN-20 [plus 1 mM MnCl2 for PP1]) that was supplemented with 200 μl EDTA-free protease inhibitor cocktail (Merck) and 400 U bovine DNase I (Merck). Cells were lysed using a TS series cell disruptor (Constant Systems) at 24 kpsi and lysates were clarified (40,000×g, 30 min, 4 °C) before incubation with Ni-NTA agarose (Qiagen) for 1 h at 4 °C. The resin was washed with ≥20 column volumes of wash buffer (20 mM Tris, 20 mM imidazole and 500 mM NaCl [plus 1 mM MnCl2 for PP1]) at pH 7.5 (PP1γ and pORF38-NLT) or pH 8.5 (pUL21 and pUL21-RVxF). Protein was eluted using wash buffer supplemented with additional imidazole (final concentration 250 mM) and proteins were subjected to size-exclusions chromatography using HiLoad 16/600 Superdex 75 (PP1) or Superdex 200 (other) columns equilibrated in 20 mM Tris pH 8.5, 500 mM NaCl, 1 mM DTT (for pUL21 and pUL21-RVxF) or 50 mM HEPES pH 8.0, 500 mM NaCl, 0.5 mM TCEP (for PP1 and pORF38-NLT). Fractions were analysed by SDS-PAGE and those containing the desired protein were pooled, concentrated using centrifugal concentrators (Millipore) and stored at 4 °C (short-term) or snap-frozen in liquid nitrogen for long-term storage at −70 °C.
ITC experiments were performed using a MicroCal PEAQ-ITC automated calorimeter (Malvern Panalytical). The solvent (ITC buffer) was 50 mM HEPES pH 8.0, 500 mM NaCl, 0.5 mM TCEP. Lyophilized peptides were dissolved into ITC buffer and their concentration was estimated from dry mass. Proteins were diluted in ITC buffer, and their concentration was estimated from the theoretical extinction coefficient at 280 nm ([53]). […] Data were analyzed using MicroCal PEAQ-ITC analysis software (Malvern Panalytical) and fitted using a one-site binding model.
Table S1. Isothermal titration calorimetry (ITC) of PP1 with TROPPO-containing peptides and proteins. Data for independent experiments are shown. For all, the cell contained C-terminally His6-tagged mouse PP1γ (7–300). –, no binding detected.

[2] = target: T2, PP1γ catalytic domain : GADD34 peptide pre-formed complex (Mus musculus, UniProt P63087); assay: Competition fluorescence anisotropy, displacement of FITC-GADD34 peptide from PP1γ (HEPES pH 8.0); settings: 2 nM fluorescent GADD34 peptide + 250 nM PP1γ
T2 construct: mouse PP1γ catalytic domain (residues 7–300)-H6; His6 (C); made in house; host or cells: E. coli T7 Express lysY/Iq (PP1γ); tracer peptide synthesised by GenScript
Excerpt: as §1
Peptides were commercially synthesised to >95% purity (GenScript) as follows: GADD34 RVxF+ϕϕ[xF] […]
(§2) Proteins were expressed using E. coli T7 Express lysY/I^q cells (New England Biolabs) grown in 2 × TY medium at 37 °C to OD600 0.8 to 1.2 before cooling to 22 °C and induction of protein expression using 0.4 mM IPTG. […] Fractions were analysed by SDS-PAGE and those containing the desired protein were pooled, concentrated using centrifugal concentrators (Millipore) and stored at 4 °C (short-term) or snap-frozen in liquid nitrogen for long-term storage at −70 °C.
Fluorescence anisotropy was measured using a SpectraMax i3 microplate reader (Molecular Devices) with wavelengths 485 ± 20 nm (excitation) and 535 ± 25 nm (emission). Samples (100 μl per well) were dispensed into low-bind black half-area 96-well microtitre plates (Corning) and fluorescence anisotropy was recorded at 27 °C. […]

[3] = target: T2, PP1γ catalytic domain : GADD34 peptide pre-formed complex; assay: Competition fluorescence anisotropy in Tris pH 8.5 buffer; settings: 2 nM fluorescent GADD34 peptide + 250 nM PP1γ
Procedure: Similar competition fluorescence anisotropy experiments with purified full-length pUL21 (Fig. 5E) were performed in a buffer optimized to enhance solubility of the protein (Tris pH 8.5 in place of HEPES pH 8). […] To test whether optimization of the TROPPO sequence to better match a canonical RVxF motif could enhance binding, we generated, expressed and purified a pUL21-H6 mutant where residues A237 and V239 had been substituted for valine and phenylalanine, respectively (pUL21-RVxF, Fig. 5E).
as §1, with “A plasmid encoding pUL21-GFP was generated by sub-cloning a codon-optimized synthetic UL21 gene (GeneArt) into pEGFP-N1 (Clontech), yielding an identical pUL21-GFP amino acid sequence as used in ([23]). pUL21-ΔL, -ΔR and -ΔLR were generated from this vector via inverse PCR, and point mutations were introduced via QuikChange mutagenesis.” left out
as §2
Fluorescence anisotropy was measured using a SpectraMax i3 microplate reader (Molecular Devices) with wavelengths 485 ± 20 nm (excitation) and 535 ± 25 nm (emission). […]

[4] = TROPPO peptides, independent experiment 1, syringe/cell µM: pUL21 1000/58.8, pORF38 1000/79.6
[5] = TROPPO peptides, independent experiment 2, syringe/cell µM: pUL21 1000/54.5, pORF38 500/17.0
[6] = independent experiment 1, 240 µM titrant, 17.0 µM PP1, HEPES pH 8.0, 25 °C
[7] = independent experiment 2, 147 µM titrant, 10.0 µM PP1, HEPES pH 8.0, 25 °C
[8] = independent experiment 3, 153 µM titrant, 9.5 µM PP1, HEPES pH 8.0, 25 °C

T1 sequence (P63087 7-300): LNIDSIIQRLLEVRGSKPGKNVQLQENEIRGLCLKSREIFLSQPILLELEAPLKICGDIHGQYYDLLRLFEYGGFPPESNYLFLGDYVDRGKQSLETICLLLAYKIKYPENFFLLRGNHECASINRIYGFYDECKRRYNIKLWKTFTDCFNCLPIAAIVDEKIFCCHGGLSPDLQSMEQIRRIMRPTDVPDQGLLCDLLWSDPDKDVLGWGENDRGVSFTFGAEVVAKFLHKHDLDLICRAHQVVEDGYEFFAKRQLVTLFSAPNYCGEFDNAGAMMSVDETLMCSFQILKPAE
T2 sequence (P63087 7-300, one chain of several): as the sequence (P63087 7-300) above

Molecule: AKRATVSEFVQVKHIDR [pUL21 TROPPO, pUL21 TROPPO peptide (residues 234–250)]
- ITC heats of TROPPO peptides against PP1 catalytic domain ([1]; 500–1000 μM peptide titrated, 50 mM HEPES pH 8.0, 500 mM NaCl, 0.5 mM TCEP, 25 °C): did not evolve heats above background levels
- -T∆S [1, 4]: –
- N (sites) [1, 4]: –
- ∆G [1, 4]: –
- ∆H [1, 4]: –
- KD ([1]; TROPPO peptides, independent experiment 1, syringe/cell µM: pUL21 1000/58.8, pORF38 1000/79.6, HEPES pH 8.0, 25 °C): –
- -T∆S [1, 5]: –
- N (sites) [1, 5]: –
- ∆G [1, 5]: –
- ∆H [1, 5]: –
- KD ([1]; TROPPO peptides, independent experiment 2, syringe/cell µM: pUL21 1000/54.5, pORF38 500/17.0, HEPES pH 8.0, 25 °C): –
- Displacement of GADD34 peptide from PP1 by TROPPO peptides ([2]; competitor at over 1000-fold molar excess, HEPES pH 8.0, 500 mM NaCl, 0.05% TWEEN-20, 27 °C): Neither TROPPO-containing peptide was able to displace the GADD34 peptide

B1: Full-length pUL21: purified full-length HSV-1 pUL21 (protein)
chain: MELSYATTMHYRDVVFYVTTDRNRAYFVCGGCVYSVGRPCASQPGEIAKFGLVVRGTGPDDRVVANYVRSELRQRGLQDVRPIGEDEVFLDSVCLLNPNVSSELDVINTNDVEVLDECLAEYCTSLRTSPGVLISGLRVRAQDRIIELFEHPTIVNVSSHFVYTPSPYVFALAQAHLPRLPSSLEALVSGLFDGIPAPRQPLDAHNPRTDVVITGRRAPRPIAGSGAGSGGAGAKRATVSEFVQVKHIDRVGPAGVSPAPPPNNTDSSSLVPGAQDSAPPGPTLRELWWVFYAADRALEEPRADSGLTREEVRAVRGFREQAWKLFGSAGAPRAFIGAALGLSPLQKLAVYYYIIHRERRLSPFPALVRLVGRYTQRHGLYVPRPDDPVLADAINGLFRDALAAGTTAEQLLMFDLLPPKDVPVGSDVQADSTALLRFIESQRLAVPGGVISPEHVAYLGAFLSVLYAGRGRMSAATHTARLTGVTSLVLAVGDVDRLSAFDRGAAGAASRTRAAGYLDVLLTVRLARSQHGQSV
modifications: left off: His6, C-terminal, kept
notes: purified full-length HSV-1 pUL21
- Competition with GADD34 peptide for PP1 binding [3]: unable to out-compete GADD34 for binding to PP1
- Competition with GADD34 peptide for PP1 binding ([3]; listed as wild-type pUL21): cannot displace a GADD34 RVxF- and ϕϕ[xF]-containing peptide from PP1

B2: pUL21-RVxF: pUL21-H6 with mutations A237V and V239F (protein)
chain: B1 chain with A237V, V239F
modifications: left off: His6, C-terminal, kept
notes: pUL21-H6 with mutations A237V and V239F
- Competition with GADD34 peptide for PP1 binding [3]: competes with the GADD34 peptide for binding to the PP1 hydrophobic groove; also recorded: the ability to compete with the GADD34 peptide for PP1 binding

B3: pORF38-NLT: VZV pORF38 N-terminal domain plus Linker region up to the end of the TROPPO motif (residues 1 to 263) (protein)
chain: MEFPYHSTVSYNGVTFYFNERATRAYFICGGCLISIPRKHGGEIAKFGHVVRGVGPGDRSVASYVRSELNRTGKTWAVSSNNNCVFLDRVALLAAGSGAVDRDLCGTFDVEVEDPTLADYLVSLPVTHLTLVAGVDVTRENKLKLFPTPTAINTTNGFMYVPNEASFSLVYMRMLELPESLQELVSGLFDGTPEIRDALNGSNDDEKTSIIVSRRAADVVTEDVKADDVPISGEPYSEKQPRRRKKSDHITLSNFVQIRTIPR
modifications: left off: His6, C-terminal, kept
- ΔH, mean ([1]; 25 °C, HEPES pH 8.0, average of three independent experiments): -13.3 kcal/mol
- Kd ([1]; independent experiment 1, 240 µM titrant in syringe, 17.0 µM PP1 in cell, HEPES pH 8.0, 25 °C, read-out: KD): 719 nM
- -T∆S [1, 6]: 4.76 kcal/mol
- N (sites) [1, 6]: 1.21 sites
- ∆G [1, 6]: -8.38 kcal/mol
- ∆H [1, 6]: -13.1 kcal/mol
- Kd ([1]; independent experiment 2, 147 µM titrant in syringe, 10.0 µM PP1 in cell, HEPES pH 8.0, 25 °C, read-out: KD): 540 nM
- -T∆S [1, 7]: 4.72 kcal/mol
- N (sites) [1, 7]: 0.965 sites
- ∆G [1, 7]: -8.55 kcal/mol
- ∆H [1, 7]: -13.3 kcal/mol
- Kd ([1]; independent experiment 3, 153 µM titrant in syringe, 9.5 µM PP1 in cell, HEPES pH 8.0, 25 °C, read-out: KD): 231 nM
- -T∆S [1, 8]: 4.5 kcal/mol
- N (sites) [1, 8]: 0.838 sites
- ∆G [1, 8]: -9.06 kcal/mol
- ∆H [1, 8]: -13.6 kcal/mol
- PP1 binding compared with GADD34 peptide ([1]; pORF38-NLT ITC versus GADD34 peptide by fluorescence anisotropy or ITC): substantially weaker binding than observed for the GADD34 peptide
- Kd ([1]; pORF38-NLT titrated into PP1, HEPES pH 8.0, 500 mM NaCl, 0.5 mM TCEP, 25 °C, one-site model, mean ± SEM, three independent experiments, listed as pOPF38-NLT, read-out: Affinity (KD), mean): ~500 nM
- Competition with RVxF peptide for PP1 binding ([2]; increasing concentrations of pORF38-NLT, HEPES pH 8.0): competes with the RVxF peptide for PP1 binding
